Measurements: publication PMC12635394, “UBE2O-mediated ubiquitylation directs cytoplasmic CTNNA1 to promote cell-to-ECM adhesions” (EMBO Reports, 2025)

Tests used:
[1] = target: T1, Flag-UBE2O-TwinStrep (purified full-length human UBE2O, wild type) (human, UniProt Q9C0C9 1-1292); assay: pull-down; 0.1 μM purified Flag-UBE2O-TS mixed with 0.1 μM purified CTNNA1-Myc in lysis buffer, captured on anti-c-Myc magnetic beads, 4 °C, 1.5 h, immunoblot; conditions: both partners purified
T1 construct: UBE2O, human, full-length WT in N-terminal Flag-tagged and C-terminal TwinStrep-tagged pLV vector; also called Flag-UBE2O-TS; Flag-UBE2O-WT-TwinStrep; source: Expi293F, transfected, purified (Strep-Tactin XT, Superdex 200); not shown: Flag, N-terminal, kept; TwinStrep, C-terminal, kept
T1 sequence (looked up): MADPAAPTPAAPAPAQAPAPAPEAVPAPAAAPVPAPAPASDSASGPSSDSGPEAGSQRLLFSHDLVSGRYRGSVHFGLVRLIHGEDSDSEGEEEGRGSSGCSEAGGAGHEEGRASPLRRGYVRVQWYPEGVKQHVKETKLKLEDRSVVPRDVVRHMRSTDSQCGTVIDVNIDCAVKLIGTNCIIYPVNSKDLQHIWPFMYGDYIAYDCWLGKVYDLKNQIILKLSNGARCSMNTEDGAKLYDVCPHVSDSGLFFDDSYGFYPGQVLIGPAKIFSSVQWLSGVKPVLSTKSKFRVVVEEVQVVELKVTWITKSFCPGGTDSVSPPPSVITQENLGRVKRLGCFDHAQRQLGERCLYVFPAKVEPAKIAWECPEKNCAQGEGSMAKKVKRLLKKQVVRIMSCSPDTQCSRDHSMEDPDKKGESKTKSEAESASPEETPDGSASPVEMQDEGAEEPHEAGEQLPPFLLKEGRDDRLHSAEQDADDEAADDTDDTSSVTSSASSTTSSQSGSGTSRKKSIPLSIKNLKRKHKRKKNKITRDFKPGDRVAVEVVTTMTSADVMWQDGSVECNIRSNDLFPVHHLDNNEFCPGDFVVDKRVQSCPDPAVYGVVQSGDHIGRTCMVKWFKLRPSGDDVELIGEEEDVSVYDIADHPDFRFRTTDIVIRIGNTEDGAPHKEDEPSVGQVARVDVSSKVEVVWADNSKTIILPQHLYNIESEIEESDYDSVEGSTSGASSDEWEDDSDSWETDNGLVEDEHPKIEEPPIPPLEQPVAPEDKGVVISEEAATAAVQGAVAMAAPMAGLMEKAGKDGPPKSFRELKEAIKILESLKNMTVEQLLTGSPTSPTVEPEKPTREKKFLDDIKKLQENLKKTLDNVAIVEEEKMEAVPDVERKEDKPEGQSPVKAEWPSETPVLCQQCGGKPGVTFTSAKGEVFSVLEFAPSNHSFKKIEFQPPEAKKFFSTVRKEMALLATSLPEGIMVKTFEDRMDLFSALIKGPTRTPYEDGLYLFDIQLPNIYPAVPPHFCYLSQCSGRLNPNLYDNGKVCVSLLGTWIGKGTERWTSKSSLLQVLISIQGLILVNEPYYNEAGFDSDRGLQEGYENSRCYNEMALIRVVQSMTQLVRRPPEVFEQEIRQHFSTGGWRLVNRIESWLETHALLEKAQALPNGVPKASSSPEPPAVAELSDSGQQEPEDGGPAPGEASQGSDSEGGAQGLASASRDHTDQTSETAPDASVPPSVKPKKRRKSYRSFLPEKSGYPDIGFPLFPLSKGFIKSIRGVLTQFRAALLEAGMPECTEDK

[2] = target: T1, Flag-UBE2O-TwinStrep (purified …); assay: pull-down; 0.1 μM CTNNA1-V5 pre-incubated overnight at 4 °C with 0, 25 or 50 nM His-GST-β-catenin, captured on BSA-blocked V5-Trap beads, washed, then 0.1 μM Flag-UBE2O-TS for 1.5 h at 4 °C, immunoblot; conditions: both partners purified

Binder	binding result [1]	binding result [2]
CTNNA1-Myc (purified mouse CTNNA1 with C-terminal Myc tag) (natural protein, UniProt P26231 1-906, looked up, αE-catenin (CTNNA1), mouse; full-length Ctnna1 in C-terminal Myc-tagged pGEX-6P-1; also called mCTNNA1-Myc; pGEX-6P-1-CTNNA1-Myc; source: E. coli BL21 (DE3), purified (glutathione resin, GST removed with PreScission protease); not shown: Myc, C-terminal, kept) MTAVHAGNINFKWDPKSLEIRTLAVERLLEPLVTQVTTLVNTNSKGPSNKKRGRSKKAHVLAASVEQATENFLEKGDKIAKESQFLKEELVVAVEDVRKQGDLMKSAAGEFADDPCSSVKRGNMVRAARALLSAVTRLLILADMADVYKLLVQLKVVEDGILKLRNAGNEQDLGIQYKALKPEVDKLNIMAAKRQQELKDVGNRDQMAAARGILQKNVPILYTASQACLQHPDVAAYKANRDLIYKQLQQAVTGISNAAQATASDDAAQHQGGSGGELAYALNNFDKQIIVDPLSFSEERFRPSLEERLESIISGAALMADSSCTRDDRRERIVAECNAVRQALQDLLSEYMGNAGRKERSDALNSAIDKMTKKTRDLRRQLRKAVMDHVSDSFLETNVPLLVLIEAAKNGNEKEVKEYAQVFREHANKLIEVANLACSISNNEEGVKLVRMSASQLEALCPQVINAALALAAKPQSKLAQENMDLFKEQWEKQVRVLTDAVDDITSIDDFLAVSENHILEDVNKCVIALQEKDVDGLDRTAGAIRGRAARVIHVVTSEMDNYEPGVYTEKVLEATKLLSNTVMPRFTEQVEAAVEALSSDPAQPMDENEFIDASRLVYDGIRDIRKAVLMIRTPEELDDSDFETEDFDVRSRTSVQTEDDQLIAGQSARAIMAQLPQEQKAKIAEQVASFQEEKSKLDAEVSKWDDSGNDIIVLAKQMCMIMMEMTDFTRGKGPLKNTSDVISAAKKIAEAGSRMDKLGRTIADHCPDSACKQDLLAYLQRIALYCHQLNICSKVKAEVQNLGGELVVSGVDSAMSLIQAAKNLMNAVVQTVKASYVASTKYQKSQGMASLNLPAVSWKMKAPEKKPLVKREKQDETQTKIKRASQKKHVNPVQALSEFKAMDSI	binds	–
CTNNA1-V5 (purified mouse CTNNA1 with C-terminal V5 tag) (natural protein, UniProt P26231 1-906, looked up, αE-catenin (CTNNA1), mouse; full-length Ctnna1 in C-terminal V5-tagged pGEX-6P-1; As the unmodified 'CTNNA1' bait it went through the ubiquitylation reaction without ATP before capture on V5-Trap; also called mCTNNA1-V5; CTNNA1 bait; source: E. coli BL21 (DE3), purified (glutathione resin, GST removed with PreScission protease); not shown: V5, C-terminal, kept) MTAVHAGNINFKWDPKSLEIRTLAVERLLEPLVTQVTTLVNTNSKGPSNKKRGRSKKAHVLAASVEQATENFLEKGDKIAKESQFLKEELVVAVEDVRKQGDLMKSAAGEFADDPCSSVKRGNMVRAARALLSAVTRLLILADMADVYKLLVQLKVVEDGILKLRNAGNEQDLGIQYKALKPEVDKLNIMAAKRQQELKDVGNRDQMAAARGILQKNVPILYTASQACLQHPDVAAYKANRDLIYKQLQQAVTGISNAAQATASDDAAQHQGGSGGELAYALNNFDKQIIVDPLSFSEERFRPSLEERLESIISGAALMADSSCTRDDRRERIVAECNAVRQALQDLLSEYMGNAGRKERSDALNSAIDKMTKKTRDLRRQLRKAVMDHVSDSFLETNVPLLVLIEAAKNGNEKEVKEYAQVFREHANKLIEVANLACSISNNEEGVKLVRMSASQLEALCPQVINAALALAAKPQSKLAQENMDLFKEQWEKQVRVLTDAVDDITSIDDFLAVSENHILEDVNKCVIALQEKDVDGLDRTAGAIRGRAARVIHVVTSEMDNYEPGVYTEKVLEATKLLSNTVMPRFTEQVEAAVEALSSDPAQPMDENEFIDASRLVYDGIRDIRKAVLMIRTPEELDDSDFETEDFDVRSRTSVQTEDDQLIAGQSARAIMAQLPQEQKAKIAEQVASFQEEKSKLDAEVSKWDDSGNDIIVLAKQMCMIMMEMTDFTRGKGPLKNTSDVISAAKKIAEAGSRMDKLGRTIADHCPDSACKQDLLAYLQRIALYCHQLNICSKVKAEVQNLGGELVVSGVDSAMSLIQAAKNLMNAVVQTVKASYVASTKYQKSQGMASLNLPAVSWKMKAPEKKPLVKREKQDETQTKIKRASQKKHVNPVQALSEFKAMDSI	–	binds
